In US11572561B2, “Method and composition for inhibiting growth of bacterium” (priority 2020, dated 2023):
Entries after “also recorded” stand apart in the source; their conditions may differ.

Tests used:
[1] = system: AS1974 target genes (mexD, chtA, prc, major facilitator superfamily, pilD, ndvB); assay: Real-time qPCR of AS1974 target genes in AS1974-overexpressing resistance strain; assay type: cell-based, P. aeruginosa; details: R3-AS1974 vs R3-EV (empty vector)
Procedure: One of the major functions of sRNAs is to suppress the target gene expression under particular conditions or in response to external stimuli. To find out the regulatory roles of AS1974 sRNAs in various drug resistance pathways, the inventors sequenced the transcriptomes of six strains, and they used newly developed program to correlate sRNA repertoires with transcriptomes. […] To validate the transcriptome result, real-time qPCR experiments were performed to measure and compare the transcript levels of these genes in both drug-susceptible and drug-resistant strains.
To further investigate if these drug-resistant genes were directly controlled by this sRNA, AS1974 was overexpressed in the resistance strain and their transcript levels were measured by qPCR. Empty vector was used as a negative control. […]
Six P. aeruginosa strains, S1, S2, S3, R1, R2, and R3, were grown at 37° C. overnight in nutrient broth with shaking at 250 rpm and harvested at stationary phase (OD600=1.5-1.7). […] Melting curves were determined by an auto-dissociation program. […] The results were expressed as the means of at least 3 independent experiments. Data are presented as mean±SD, and comparisons were analyzed using unpaired t test (two tailed: *p<0.05, **p<0.01, and ***p<0.001).

[2] = system: resistance strains of P. aeruginosa (R3); assay: MIC measurement (microbroth dilution) of resistance strain overexpressing sRNA; assay type: cell-based; details: transformed R3 strain
Text: Different classes of antibiotics including aminoglycoside, cephalosporin, beta-lactam, extended-spectrum penicillin beta-lactam, fluoroquinolone were used. Antibiotics susceptibility and resistance strains are highlighted. R3-AS1974, R3-AS2779 and R3-IGR2780 represent R3 strains transformed with the corresponding sRNA while R3-AS1974-Reverse represents R3 strains transformed the sRNA which sequence was reverse and complementary to AS1974 (negative control). R3-empty vector was used as vector control. The strain ATCC27853 was used for quality control.
To find out if the sRNAs directly play a role in the intrinsic drug resistance of bacteria, each of the sRNAs was overexpressed in the resistance strains of P. aeruginosa, and MIC measurements were performed. […]
The MICs of 11 antibiotics, including penicillin G, cefotaxime, chloramphenicol, tetracycline, erythromycin, lincomycin, ciprofloxacin (Sigma, St. Louis, Mo., USA), levofloxacin (Daiichi Sankyo, Tokyo, Japan), gatifloxacin (Bristol-Myers Squibb, Moreton, UK), moxifloxacin (Bayer Healthcare Pharmaceuticals, Berlin, Germany), and linezolid (Pfizer, NJ, USA), were determined using the microbroth dilution method, according to the Clinical and Laboratory Standards Institute (CLSI). […]

[3] = system: total transcripts of P. aeruginosa; assay: Transcriptome profile comparison of AS1974-transformed and control strains (off-target effect); assay type: cell-based; details: AS1974-transformed vs control strains

B1: AS1974: sRNA of P. aeruginosa, SEQ ID NO: 2, located at the antisense region of mexR (nucleic acid, listed as Pseudomonas aeruginosa)
chain: GAATGTTCTTAAATATCCTCAAGCGGTTGCGCGGCCAGGCACTGGTCGAGGAGATGCACCAGGGTGGCCTGTTCCACCGGGGTGAGCGGGGCAAACAACTCGTCATGCACGCGTGACATGATGGCCTC
[1]
  target gene expression upon overexpression of sRNA: downregulated
[2]; chloramphenicol
  resistance of the AS1974-overexpressed strain to chloramphenicol: still showed resistance
[2]; aminoglycoside, cephalosporin, meropenem, ertapenem, empty vector control
  effect of sRNA overexpression on MIC / antibiotic susceptibility of the resistance strain: hypersusceptibility; also recorded: transformed the bacteria from resistant strains to drug-sensitive strains
[3]
  total transcripts affected (off-target effect): less than 1%
